Test results published in patent US20150183884A1 (NATIONAL HEALTH RESEARCH INSTITUTES, published 2015).

Key:
[1] = biological target: ENO1 deletion mutant Δ1-189 (human) (UniProt P06733); assay: ELISA on coated mutant protein, 10 microgram EN10 mAb
[2] = biological target: ENO1 deletion mutant Δ1-297 (human) (UniProt P06733); assay: as above
BSA = biological target: T1, BSA (bovine, UniProt P02769); assay: ELISA, BSA as background
T1 construct: also called BSA background
Excerpt: This reaction solution was subjected to 2% agarose gel electrophoresis to analyze the reaction products. Reaction products with the correct molecular weights were ligated into a pCR 2.1-TOPO vector (manufactured by Invitrogen) for subcloning in accordance with the attached instruction manual. M13 forward (5′-[…]-3′(SEQ ID NO: 11) and M13 reverse (5′-CAG GAAACA GCT ATG AC-3′ (SEQ ID NO: 12)) primers were then used to determine the nucleotide sequence. Every mutation clone with the correct sequences was digested with restriction enzymes BamHI and XhoI, and the digestion products were subjected to 2% agarose gel electrophoresis. The insertion fragment of each mutant was cut from the agarose gel and purified with a Gene Clean Kit in accordance with the attached instruction manual provided by the manufacturer (BIO101). The BamHI and XhoI DNA fragment of each mutant was ligated to the BamHI and XhoI sites of an E. coli expression vector pTRC His A (Invitrogen). The resulting plasmid was transformed into E. coli BL21 Rosseta. The ENO1 mutation protein was expressed in E. coli by IPTG induction and purified by Ni-agarose in accordance with the attached instruction manual provided by the manufacturer (Qiagen) after the bacteria pellet was sonicated. The purity of each mutant was analyzed by 12% SDS PAGE. […] The binding affinity was determined by the readings of OD 405. […]

[3] = biological target: ENO1 deletion Δ297-434 mutant (human) (UniProt P06733); assay: ELISA on coated ENO1 protein or mutant, 10 microgram EN10 mAb
ENO1 deletion Δ297-434 mutant (human), sequence (P06733 1-296, stated change not applied): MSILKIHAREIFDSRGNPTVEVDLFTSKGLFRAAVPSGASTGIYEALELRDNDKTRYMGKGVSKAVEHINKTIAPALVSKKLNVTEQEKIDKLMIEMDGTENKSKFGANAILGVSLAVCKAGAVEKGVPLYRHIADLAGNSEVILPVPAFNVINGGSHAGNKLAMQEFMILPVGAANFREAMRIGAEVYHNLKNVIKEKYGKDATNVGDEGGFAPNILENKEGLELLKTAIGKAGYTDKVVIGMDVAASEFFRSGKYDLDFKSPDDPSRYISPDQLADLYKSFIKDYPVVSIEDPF

T1 sequence (P02769 25-607 limits assumed): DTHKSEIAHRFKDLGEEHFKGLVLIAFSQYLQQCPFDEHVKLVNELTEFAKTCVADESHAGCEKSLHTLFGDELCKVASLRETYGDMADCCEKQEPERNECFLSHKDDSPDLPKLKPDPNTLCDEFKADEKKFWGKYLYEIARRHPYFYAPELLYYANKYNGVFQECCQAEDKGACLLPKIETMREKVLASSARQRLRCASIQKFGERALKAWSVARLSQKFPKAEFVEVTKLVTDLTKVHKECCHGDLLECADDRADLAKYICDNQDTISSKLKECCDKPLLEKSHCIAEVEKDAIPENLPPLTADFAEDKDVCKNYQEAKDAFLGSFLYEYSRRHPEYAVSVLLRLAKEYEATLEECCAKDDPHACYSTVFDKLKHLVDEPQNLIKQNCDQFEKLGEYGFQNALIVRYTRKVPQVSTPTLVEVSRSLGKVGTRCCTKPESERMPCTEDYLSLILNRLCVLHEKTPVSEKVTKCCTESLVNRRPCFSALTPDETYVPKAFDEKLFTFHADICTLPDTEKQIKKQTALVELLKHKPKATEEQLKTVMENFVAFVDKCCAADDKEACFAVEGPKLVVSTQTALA

B1: EN10 mAb (antibody, V domains shown)
VH: EVQLQQSGPELVKPGASVKMSCKASGYTFTSCVMNWVKQKPGQGLEWIGYINPYNDGTKYNEKFKGKATLTSDKSSSTAYMELSSLTSEDSAVYYCAREGFYYGNFDNWGQGTTLTVSS
VL: DIQMTQSPASLSASVGETVTITCRASENIYSYLTWYQQKQGKSPQLLVYNAKTLPEGVPSRFSGSGSGTQFSLKINSLQPEDFGSYYCQHHYGTPYTFGGGTKLEITR
notes: also called clone 10; anti-human ENO1 antibody clones 10
OD405 [1]: 1.43 OD405 | percent of the OD405 of wild type ENO1 [1]: 42% | OD405 [2]: 1.56 OD405 | percent of the OD405 of wild type ENO1 [2]: 39% | binding result (BSA): no binding (tested: 10 microgram EN10 mAb (amount)) | OD450 [3]: 0.47
